Laboratory results published in the DeepSol protein solubility set.

Assay: soluble on expression in E. coli; label from the status in PepcDB or PDB records

Sequence | soluble on expression in E. coli
MGSDKIHHHHHHMKLLILGNHTCGNRGDSAIMRGLLDAIRQQAPEAEMDVMSRFPVSSAWLQGRPIIADPLYQLSQKQQAAAGLNGRVKKVLRRRFQHKILLSKVAQEGSLRNFAIAPEFAEFAQFIAQYDAVIQVGGSNYVDLYGLTHFEYPLCAFMANKPIYMVGHSVGPFQNPDFNQLANYVFGRTSALILRETVSRDLMTAAQIDTRKVEQGVDTAWLVERRHDEFVASYAVQHWLDVTARRKTVAITLRDLEPFDKRLGTTQQAYEQAFAQVVNRLIADGYQVLALSTCTSIDRYNRDDRMVALRMAKYVNDSENFHIAMDELNDVEIGKILASCVLTIGTRLHSAIISMNFGTPAIAINYEHKSAGIMQQLGLAELAIDIRHLLNGSLQSVVADTLNQLPALKAKVANAVTEERAKGFTMIKSVLDRIREAQ | not soluble
MKFYILLVVLVAFVAAKPHPGYGRPSYGGGYGGGGGDFGGGGSGGQWGSQSSSFQQSQSSGGFQNNAGGGFGGGMGPGGGGWGRR | not soluble
MMLCFQEVALNGGNILSKFTERLLTILYPPICPGCKQRVSAYGTICSECWKDLQFITKPYCPVMGVPFVYDMGDGFLSGEALQNSLPFSRVRSVIVHKGVAQSLVTRLKYGDHVELASFMANWMVSAGREIVDDCDIIISVPLHFRRFLKRRYNQSAELARYIARVQKKEFKPGWLVRCRHTRPQVNLSARERKLNVLNAFEVPRKVKKYLKGRSILLIDDVFTTGATVTAAAATLKRAGARQVDVLTFSRVLKEASIFPNS | not soluble
MGSDKIHHHHHHVDQVNAYRNSAHLYDLDQRELVTADIPFYLEYAGSFGGGILELGCGTGRIAIPLAEAGHDITALDLSENMLAAFSAKLTNVAAGTKKKLALVQGNMADFSLRKTFDMIIAPFRAFQALTRAEDINGCLACMREHLNDGGIVIINVFRPFGTLDESWCYPETVQWERWDDATGSKVVKKHWGQRIDVENQIIYPGFAYEVMASNGVVERFADNLALKYYYYEQLTTLLQDAGFRIKEEYGWYDKSPIENGRELIFVCTR | not soluble
MGSDKIHHHHHHMRDNTHSLEGVARLLLRSEAVASSRIEGIAPNSDKVAMAILARESDSEIRGFKESATAVARNVAILDTINADLAYKDELVLDDIVAMQTALVHAQFETIHPFPDGNGRVGRAMIHALLQRRGLTDAAVLPVSMVLATLGDRYVDGLTKFREGDVLAWISFFVEAAQVATTKAAELADSVAALEAEWMDKVNHHRTAQEASCHAFGHGAHREVRTGDFIDKHGPRCSRFTHRRWHST | not soluble
MAHHHHHHMGGAVSFCLQKLNKVSEVEYRPYKEYASYGEQSVPVKGSDDSGRSMIYRMSNTSEEELKRLRDEWYAGGSCLSVLERLCKERGKRTCLAYRKLKTIEKNETTTSDGRKKVLETYVFEPERRTMSYTLFWQNIVDFGRGLHEIGLTKGNTVSIYEETRWQWLCTMYSCWSQGLLVSTVYANLGEDALQYALDEAQCNAIVCNGSKVKDVLAMFKVIEAPKGTKVIYLDELPPSVTSEEYDLYAWSDVVARGKKSEASCRIPSGAESKDELALIMYTSGTTGNPKGVMHTHGSLYCGCMTISQRINDLLGKMKEQEWYCSYLPLAHIMELAVTSVLMMRGVIIGYGSPRTLLDTFAKPCGDLTTYRPLVFVAVPRVFDSMKRAVEEKLPPPGSLKRKIFDKAYEARLKALKKGCDTPFFNKRVFANARKVMGGRVYAMLSGGGPLSESTQEFINVVFGMVIQGWGMTESVACGGIQRTGNLEYNCVGQVLKTAEVQLLDTDEFKHTDQPEPRGEVLLRGPFLFKGYYKQPEQTREALDNDGWLHTGDVASVTPSGTMRIVGRVKALAKNANGEYLALEMLESIYGTNEITVPNGVCVLVHPHRTYIAIIAVTNEKLVKAFMKKHKIENGGFPAILDDAEFLRVVLQSLQKTARDANRCSFEVVQGVKLLNEEWTPENGVLTAAMKLKRRVISENYADFINKLFEKQ | not soluble
MLDHNRLEEFIEQIRLTPAIWKNREFDISREHMNEIWAHFGHTFDISPKEAEMQWEYLIRLHRFMNRNASLEQFRIEVPSLEDDFTPADTLVAESLAIFLKPTLDELLLISKPSETSV | not soluble
GPGSMISLDAYVRYVYQYSSPTTTEHLRQTVWGPLGLCSGASASPKPISGAQPCWRDASVSHEVLYAVPPITTNVRCVGSRIDAHLTDLLEALPLSSPTVPPTTPAAATLASRFARPSRLATIGLPFCLCVKPQTEHLTPWSLLCTSSSSPTDASNPEMNRKQPSRPLVLVVDTGAAEAVLRGSDLYAPGIVTASRPFHAGERAVVAFYVERVAGTGDEAQNGSAEAPCRLVCALPTGATLSAEQFEPLDMDVDYQDKHQQVDMLAGRSTFLVCIGSGVTCMEWKTVMSRSVHGTALRMEWTPQGQPSRATLRALLGITKGTEDSNARSSTPLPQPPSSGVEEGEERAADVFFLQNYSSMVPVALLVQHLSPAALRRAWTHSDDADQGRSPVPCTILDACAAPGGKTSLLLSLLQERAEQERTAMAEAAIPLPSATVATEPFRVVCCERSRPRQEQLMSLLHRHFASHLAAPSASPSLNSTPAVDVPYVTRVLESRCVDTNKFLKRKLTEAAGSSDGSAASHTASFDAVLLDPPCTGMGLRPKLMPHVQSIASIQRSADYQRKLFDSCIRHIRGSPTSPGVIVYSTCTTTLEENEANVLHFLCTYPSVRLARARTAAQRALCGLSTVRSYGAQHDTDGSHGSTCLCSCLLRNEITEVQLAKERAAAAEGLSSTDPLLLLRFMPRPLDIYDDISEDGVGFFVAVFLCSGYTDA | not soluble
MGKLFGTDGVRGIVNKELTPELVLKLSKAIGTFFGKNSKILVGRDVRAGGDMLVKIVEGGLLSVGVEVYDGGMAPTPALQYAVKTLGYDGGVVITASHNPAPYNGIKVVDKDGIEIRREKENEIEDLFFTERFNTIEWSSLTTEVKREDRVISTYVNGILSHVDIEKIKKKNYKVLIDPANSVGALSTPLVARALGCKIYTINGNLDPLFSARQPEPTFDSLKETAEVVKTLKVDLGVAHDGDADRAIFIDSEGRVQWGDRSGTLLSYWASVKNPKAIKKIVTAVSSSSLVEEYLSKYNIQVDWTKVGSVDIAHKVADENALAGFEENGGFMYPPHQYVRDGAMSFALMLELLANENVSSAELFDRLPKYYLVKTKVDLKPGLMVEEIYKKILEVYSTSSVKAITIDGVKIIGKDFWFLVRKSGTEPIIRIMAEAKDENVANNLVNELKKIVEGK | soluble
MTSFSLIATAAMGLESVVAEEVRRLGYECQVENGKVTFEGDALAICRANLWLRTADRVKLKVGEFRATTFEELFEQTKALPWADYLPKDAEFPVIGKSVKSTLFSVSDCQAIVKKAVVESLKARYHLSWFPETGPLYRIEVALHKDIATLTIDTSGAGLHKRGYRARQGEAPLRETLAAALVLLTNWTPDRPFVDPFCGSGTIAIEAALIGQNIAPGFNRDFVSEQWPWIGESVWEEARQEAEQMARYDQPLDICGIDLDPHMVEIAKMNAAEAGLSDLISFREGRAEQFRTDAQYGVIVGNPPYGERLGEQREVEALYRAIGRAFAALDTWSVYILTAHRGFETHYGRPATKRRKLFNGFIETHYYQYWGPRPPREARS | not soluble
KYDNKEFSSAVGHYGVGNGPYFMIPGYGPYTLREVTDTVDGMYLPLSYLNIWAGLGKWALEGLEKRALLVPQEAQLDSSPDPYVLTRDVYIQRQNFKAEIDTVEEVNPEEEALLDEYLDEF | not soluble
MNKQEVILKVQECAAWWILERQSKLTKLMSETMSINPFMTPFIFDYHSLNDFDELVEAIIAKHLMTGHDTGFGKLIDEKILPRVFGAYKLDKSYRAANEPFIHPCFDEIDHVIQRDDGRIELLSLKAGKWTIQLTMAVQLNKAFHEIINNYPGVADNIVVGVFYGNSHGLTDKYRILRGINTGANHNVIDIRDKVHVYAGKEFWSWLNNGEAETQHWVLEGIERAVKEADIKEKNKDLIEKFKEHVAKKYNEQVLNADGTAQWHKLLEMINE | soluble
MGSDKIHHHHHHAPSEAQQFTEFWTPGKPNPSICKSPLLVSTPLGLPRCLQASNVVKRLQKLEDIASLNDGNRAAATPGYQASVDYVKQTLQKAGYKVSVQPFPFTAYYPKGPGSLSATVPQPVTYEWEKDFTYLSQTEAGDVTAKVVPVDLSLGAGNTSTSGCEAEDFANFPAGSIALIQRGTCNFEQKAENAAAAGAAGVIIFNQGNTDDRKGLENVTVGESYEGGIPVIFATYDNGVAWSQTPDLQLHLVVDVVRKKTETYNVVAETRRGNPNNVVMVGAHLDSVFEGPGINDNGSGSAAQLEMAVLLAKALPVNKVRFAWWGAEEAGLVGSTHYVQNLAPEEKKKIKAYLNFDMIGSPNFGNFIYDGDGSDFGLQGPPGSAAIERLFEAYFRLRGQQSEGTEIDFRSDYAEFFNSGIAFGGLFTGAEGLKTEEQAQKYGGTAGKAYDECYHSKCDGIANINQDALEIHSDAMAFVTSWLSLSTKVVDDEIAAAGQKAQSRSLQMQKSASQIERWGHDFIK | not soluble
MGSDKIHHHHHHMRAFEKIPAFQQWQKVEAIHRGWSTDLKFKVTKNQETFLLRIFQQEELLAKQQEYQFIKKVAALGFPSSKPFLCAPIPESEQGYMLLTYLEGEDLSDVLPALSPKRQLNLGVEAGRYLNKIHKLLLPERISQREIAQNLYEKKQSQLNKYKESQFCMPYQQPIISYLEKQLPLLQQRPVVYQHGDFHVGNFIYLPTRQVGVIDFNRWDFGDPYEEFYKLQFFSRNVSPLFAYGQLQGYFAGKVPTLFWQFQKLYTFHAGLYSLVWALSFGEKEIRTMEQQYQQLLEDYNCGELLVPKWFSTIQRKGLRF | not soluble
MGALAELAGDEKNGEGSRTFVFTNEGHTLGNALKTIIARYPEVDFCGYTIPHPTEQKLHFRIQSRRDRAIDILKRGLEDLEGLCDHTIVTFEKEMAEFNAMKVENLEHHHHHH | not soluble
MNDKQYQEIASLLERLSRNNAMSIYGDWIKNSFSKELIASISVLTHNDLKILDSLFKQDLSISDVVSRTGLSQGGVSRRVNMMSEKGIIHKYQNDKNKKTVFLKLNPIGQELFDFHRKLHDHIKEIFFQKTQRFNEEQIRVVISFLEAILT | soluble
MGSDKIHHHHHHCSDDDSVNEWDMSYVSLLPADYLRPTPSFTLKHVEEEGIEGSVEFQFMATTQKAVTQDINVHYSVTCDGIDANKINLSAKNLLIKAGSTASEPITLSITDWKYLENTKEALEYTLKIKIADIESTSAEVTNAAYYQEIVLKISKTAEKKKESVLLTNVKDWIFTFMTGVENSASNSVAGTGTNDVATNGVPFWLTVDFKEVKNVTGVQTTHWGAGYAPSKVEIFSSENGDDWVSIGQWDTKGRTQTITFDERVKTRYLKYQMITVPSRVDITRFYIYAW | not soluble
MGSDKIHHHHHHMRSPNFYTYAFLNTPDVPLRLPSGNLGQLLLINGNNISAVVEPGISLESSQNNDEEVIKMVLAHDRVICELSQQTTVLPLRFGTYFNSEETLLNHIESHAQEYQKKLDNIQGKTEYTLKLIPRKFEELAKISGGHGRDYFLAKKLHYEHQKSFIGDQNREKHHLINLMMDIYRSSAIIQDYVEEVRLHLLVDRHDKALLFKQVLTLQEKCPHWNLILGEPLPPYHFV | not soluble
